In this assay the target is EFG displayed on the surface of E. coli BL21 as a fusion with InaZN and mCherry (BL21-pEImC-EFG) (Escherichia coli (ExPEC strain RS218)) (UniProt P0A6M8). Description: fluorescence intensity of labelled ligand bound to bacteria, competition; BL21-pEImC-EFG incubated with a mixture of fluor-TF (20 μg/mL) and an excess of unlabeled holo-TF; fluorescence of 10^7 bacterial cells, excitation 485 nm, emission 535 nm.
Chain of UniProt P0A6M8 (P0A6M8 whole entry, the tested form may be a part): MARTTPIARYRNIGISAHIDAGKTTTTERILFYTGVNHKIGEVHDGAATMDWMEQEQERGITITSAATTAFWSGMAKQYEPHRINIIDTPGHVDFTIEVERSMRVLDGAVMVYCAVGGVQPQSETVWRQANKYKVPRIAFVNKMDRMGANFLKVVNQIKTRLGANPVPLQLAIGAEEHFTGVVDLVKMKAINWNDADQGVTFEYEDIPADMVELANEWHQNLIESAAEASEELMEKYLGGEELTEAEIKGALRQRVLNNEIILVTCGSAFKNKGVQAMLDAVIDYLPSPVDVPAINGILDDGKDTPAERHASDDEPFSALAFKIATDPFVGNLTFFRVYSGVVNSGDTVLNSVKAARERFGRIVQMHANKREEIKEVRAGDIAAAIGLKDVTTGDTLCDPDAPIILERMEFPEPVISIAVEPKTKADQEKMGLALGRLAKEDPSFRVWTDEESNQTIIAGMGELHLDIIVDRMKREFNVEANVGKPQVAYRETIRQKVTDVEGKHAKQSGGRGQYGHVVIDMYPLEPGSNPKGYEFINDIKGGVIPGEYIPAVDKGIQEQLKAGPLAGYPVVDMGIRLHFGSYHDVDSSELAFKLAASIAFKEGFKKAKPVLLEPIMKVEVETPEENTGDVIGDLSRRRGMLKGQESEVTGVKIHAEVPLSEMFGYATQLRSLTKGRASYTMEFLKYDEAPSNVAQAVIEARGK

Regarding “holo-transferrin (iron-saturated holo-TF), unlabeled (from UniProt P02787 20-698) (natural protein)”, the fluorescence intensity of bound fluor-TF with an excess of unlabeled holo-TF was 76.4%.
